# Source: patent US7312060
# Experiments:
# [1] = target: APC segment 3 (amino acids 1098-1696), wild type, with N-terminal VSV-G tag and C-terminal P53-derived tag (Vesicular Stomatitis Virus; human) (UniProt P25054); test: HTS-PTT ELISA, 0.1 ul of translation mix per well
# [2] = target: APC segment 3 (amino acids 1098-1696), wild type, with N-terminal VSV-G tag and C-terminal P53-derived tag (Vesicular Stomatitis Virus; human) (UniProt P25054); test: HTS-PTT ELISA on NeutrAvidin plate, HRP chemiluminescence
# [3] = target: APC segment 3 (amino acids 1098-1696), wild type, with N-terminal VSV-G tag and C-terminal P53-derived tag (Vesicular Stomatitis Virus; human) (UniProt P25054); test: HTS-PTT ELISA on NeutrAvidin plate, alkaline phosphatase chemiluminescence
# UniProt P25054, sequence (P25054 other isoform, or with tags, fused parts or gaps limits assumed): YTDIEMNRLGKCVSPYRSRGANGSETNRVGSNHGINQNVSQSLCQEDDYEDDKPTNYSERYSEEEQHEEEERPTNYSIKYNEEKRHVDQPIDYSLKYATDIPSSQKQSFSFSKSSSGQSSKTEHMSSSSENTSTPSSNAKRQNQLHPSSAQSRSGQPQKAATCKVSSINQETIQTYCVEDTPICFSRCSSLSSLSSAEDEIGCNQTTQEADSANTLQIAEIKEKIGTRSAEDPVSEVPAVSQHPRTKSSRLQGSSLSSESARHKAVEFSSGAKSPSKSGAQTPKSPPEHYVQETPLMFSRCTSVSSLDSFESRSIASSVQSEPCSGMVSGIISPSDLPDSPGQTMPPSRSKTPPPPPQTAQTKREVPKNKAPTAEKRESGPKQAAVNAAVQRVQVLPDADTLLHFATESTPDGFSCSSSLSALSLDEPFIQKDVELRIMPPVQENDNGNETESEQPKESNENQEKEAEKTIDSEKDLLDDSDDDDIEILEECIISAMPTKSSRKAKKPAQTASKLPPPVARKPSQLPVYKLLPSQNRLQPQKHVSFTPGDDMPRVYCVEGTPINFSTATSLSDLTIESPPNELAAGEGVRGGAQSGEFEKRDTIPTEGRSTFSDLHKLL
Substance,signal-to-noise ratio [1],signal over background (fold over background) [2],signal over background (fold over background) [3]
anti-VSV-G-HRP (Roche Applied Sciences) (antibody),10,400,–
anti-p53-alkaline phosphatase (Santa Cruz Biotechnology) (antibody),30,–,100
